Where “and” joins values, the source holds several entries; their conditions need not be identical. Equal values may be shown once.
T1: recombinant soluble human GPVI (GPVI-Fc) (human, UniProt Q9HCN6 21-267)
T1 construct: extracellular domain; also called soluble recombinant GPVI; purified GPVI; not shown: human Ig Fc domain
T1 sequence (looked up): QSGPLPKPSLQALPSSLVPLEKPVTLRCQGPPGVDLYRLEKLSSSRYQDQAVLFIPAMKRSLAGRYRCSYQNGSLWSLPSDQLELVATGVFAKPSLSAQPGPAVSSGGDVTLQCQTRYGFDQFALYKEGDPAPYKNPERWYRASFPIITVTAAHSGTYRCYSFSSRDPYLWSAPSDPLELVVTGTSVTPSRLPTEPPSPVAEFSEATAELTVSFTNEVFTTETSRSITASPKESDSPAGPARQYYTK


How the values were obtained:
[1] = target: human glycoprotein VI on human platelets (human) (UniProt Q9HCN6); assay: flow cytometry, periplasmic extract on human platelets, FITC anti-c-myc
[2] = target: human glycoprotein VI on human platelets (human) (UniProt Q9HCN6); assay: flow cytometry of washed human platelets with an irrelevant scFv, FITC-coupled anti-c-myc IgG [top panel]
[3] = target: human glycoprotein VI on human platelets (human) (UniProt Q9HCN6); assay: flow cytometry of human platelets with bacterial periplasmic extract, FITC-coupled anti-c-myc antibody [upper panel]
[4] = target: T1, recombinant soluble human GPVI (GPVI-Fc); assay: SPR (BIAcore 2000), GPVI-Fc immobilized on CM5, first series
Description: (§1) Binding of the anti-GPVI scFv to recombinant GPVI-Fc is analyzed with surface plasmon resonance using a BIAcore 2000 system (Uppsala, Sweden). Binding studies is performed with scFv 9O12, Proteolytic Fab and parental IgG.
(§2) Recombinant GPVI-Fc is immobilized (˜600 RU) onto a Carboxy-Methyl Dextran CM5 sensor chip using the amine coupling method (Wizard procedure). Antibody is then passed over the immobilized recombinant GPVI-Fc in HBS-EP buffer (0.01 M HEPES pH 7.4, 0.15 M NaCl, 0.005% polysorbate 20 (v/v)) at a flow rate of 20 μl/min at 25° C. Kinetic constants (kₐ, kd) and affinity are determined using BIAevaluation version 3.1 software, by fitting data to binding model. HBS-EP is the running buffer. 10 mM glycine-HCl pH 2.5 injected for 30 s at 20 μl/min is the regeneration buffer. All reagents and buffers used are from Biacore.

[5] = target: T1, recombinant soluble human GPVI (GPVI-Fc); assay: blocking ELISA: 4 µg GPVI-Fc on immobilized collagen with increasing antibody fragment; blocked ligand: fibrillar type I collagen; bound GPVI-Fc detected with HRP-coupled anti-Fc
Description: (§3) FIG. 9. Inhibition of GPVI binding to immobilized collagen. GPVI-Fc was incubated on immobilized collagen in the presence of increasing amounts of antibodies: scFv 9O12.2 (triangle), or pFab (square) (A): 2 μg of GP VI-Fc; (B): 4 μg of GPVI-Fc Bound GPVI-Fc was detected using an HRP coupled anti-Fc IgG.

[6] = target: T1, recombinant soluble human GPVI (GPVI-Fc); assay: inhibition of GPVI-Fc binding to immobilized collagen, ELISA
Description: as §3

[7] = target: T1, recombinant soluble human GPVI (GPVI-Fc); assay: SPR (BIAcore 2000), GPVI-Fc immobilized on CM5, second series
Description: as §1, §2

[8] = target: T1, recombinant soluble human GPVI (GPVI-Fc); assay: competition ELISA on GPVI-Fc coated plates; competitor: scFv 9O12.2 at a fixed concentration (60 µg/mL in the legend, 100 µg/ml in the methods), bound scFv detected with HRP-coupled anti-c-myc
[9] = target: T1, recombinant soluble human GPVI (GPVI-Fc); assay: SPR against immobilized GPVI (procedure as in Example 1)

Molecule	Kd [4] [nM]	IC50 (read off the curve) [5] [µg/mL]	IC50 [6]	Kd [7] [nM]	other results
irrelevant scFv (c-myc tagged negative control)	–	–	–	–	% positive platelets [1]: 0.17%; % positive platelets (FITC count) [2]: 0.17%; % positive platelets (FITC count) [3]: 0.03%
9O12.2 Fab fragment prepared by papain digestion of the parental IgG (Fab, V domains shown, Papain Fab of the murine IgG1 kappa antibody; also called Fab 9O12.2; Fab 9O12) VH: QVQLQESGAELVKPGASVKMSCKASGYTFTSYNMHWVKQTPGQGLEWIGGIYPGNGDTSFNQKFKGKATLTADKSSRTAYMQLSSLTSEDSAVYYCARGTVVGDWYFDVWGAGTTLTVSS VL: DVLMTQTPLSLPVSLGDQASISCRSSQSLENSNGNTYLNWYLQKPGQSPQLLIYRVSNRFSGVLDRFSGSGSGTDFTLKISRVEAEDLGVYFCLQLTHVPWTFGGGTKLEIK	4.5	~7	2.1 µg/mL and 15 nM	2.3	–
9O12.2 monoclonal anti-human GPVI antibody (murine IgG1, kappa) (antibody, V domains shown, The VL is therefore written as 136-247; also called 9O12.2 IgG; IgG 9O12.2) VH: QVQLQESGAELVKPGASVKMSCKASGYTFTSYNMHWVKQTPGQGLEWIGGIYPGNGDTSFNQKFKGKATLTADKSSRTAYMQLSSLTSEDSAVYYCARGTVVGDWYFDVWGAGTTLTVSS VL: DVLMTQTPLSLPVSLGDQASISCRSSQSLENSNGNTYLNWYLQKPGQSPQLLIYRVSNRFSGVLDRFSGSGSGTDFTLKISRVEAEDLGVYFCLQLTHVPWTFGGGTKLEIK	6.5	–	–	4	IC50 (read off the curve) [8]: ~20 µg/mL
murine single chain variable fragment scFv 9O12.2 (VH-(Gly4Ser)3-VL, spacer, c-myc flag) (scFv, Made in the E. coli periplasm through a pelB leader; Tested as periplasmic extract or after purification on GPVI-sepharose; The monomer was isolated by size exclusion for the aggregation assay; also called mscFv 9O12.2; mscFv 9O12) scFv: QVQLQESGAELVKPGASVKMSCKASGYTFTSYNMHWVKQTPGQGLEWIGGIYPGNGDTSFNQKFKGKATLTADKSSRTAYMQLSSLTSEDSAVYYCARGTVVGDWYFDVWGAGTTLTVSSGGGGSGGGGSGGGGSDVLMTQTPLSLPVSLGDQASISCRSSQSLENSNGNTYLNWYLQKPGQSPQLLIYRVSNRFSGVLDRFSGSGSGTDFTLKISRVEAEDLGVYFCLQLTHVPWTFGGGTKLEIKRSRVTVSSEQKLISEEDLN	2.5	~4	~1.17 µg/mL and ~42 µM	2.6	koff [7]: 0.00017 s⁻¹; kon [7]: 65000 M⁻¹ s⁻¹
second optimized humanized scFv 9O12.2 fragment, hscFv 9O12.2(2) (scFv, Murine VL FR1 and FR2 are kept; Detected through its c-myc flag) scFv: QVQLQESGAEVKKPGASVKVSCKASGYSFTSYNMHWVRQAPGQRLEWMGGIYPGNGDTSFNQKFKGKATLTADKSSRTAYMGLSSLRPEDTAVYYCARGTVVGDWYFDVWGQGTLVTVSSGGGGSGGGGSGGGGSDVLMTQTPLSLPVSLGDQASISCRSSQSLENSNGNTYLNWYLQKPGQSPQLLIYRVSNRFSGVLDRFSGSGSGTDFTLTISSLQPEDFAIYYCLQLTHVPWTFGGGTKVEIKRSRVTVSSDQKLISEEDLN	–	–	–	–	Kd [9]: 3.2 nM; koff [9]: 0.000186 s⁻¹; kon [9]: 58000 M⁻¹ s⁻¹

Reference: patent US20130189259A1 (INSERM INSTITUT NATIONAL DE LA SANTE ET DE LA RECHERCHE …, published 2013)
